Assay results taken from patent publication US20160102139A1 (NATIONAL UNIVERSITY CORPORATION CHIBA UNIVERSITY, published 2016).

B1: 3xFlag mCD69EC treated with the deglycosylation enzyme PNGase F (receptor, mouse, UniProt P37217 62-199, looked up)
chain: NVGKYNCPGLYEKLESSDHHVATCKNEWISYKRTCYFFSTTTKSWALAQRSCSEDAATLAVIDSEKDMTFLKRYSGELEHWIGLKNEANQTWKWANGKEFNSWFNLTGSGRCVSVNHKNVTAVDCEANFHWVCSKPSR
modifications: N-glycans removed by PNGase F (500 U per 1 ug protein)
notes: extracellular domain; Same polypeptide as m2, after deglycosylation with N-glycosidase PNGase F; also called CD69EC previously treated with PNGase F; deglycosylated 3xFLAG mCD69EC; not shown: N-terminal 3xFlag tag from vector p3xFLAG CMV-9
B2: mouse CD69 extracellular domain protein having 3xFlag-tag added thereto (3xFlag mCD69EC) (receptor, UniProt P37217 62-199, looked up)
chain: NVGKYNCPGLYEKLESSDHHVATCKNEWISYKRTCYFFSTTTKSWALAQRSCSEDAATLAVIDSEKDMTFLKRYSGELEHWIGLKNEANQTWKWANGKEFNSWFNLTGSGRCVSVNHKNVTAVDCEANFHWVCSKPSR
notes: extracellular domain; also called mCD69EC protein; not shown: N-terminal 3xFlag tag from vector p3xFLAG CMV-9

Key:
Experiment in all cases: immunoprecipitation with anti-Flag M2 antibody from bone marrow extract, immunoblot with anti-Myl9/12 antibody
[1] = target: T1, mouse Myl9 (myosin regulatory light chain polypeptide 9) (mouse, UniProt Q9CQ19 2-172)
T1 construct: Native protein in mouse bone marrow extract (BM lysate) or mouse tissues; also called Myl9/12
T1 sequence: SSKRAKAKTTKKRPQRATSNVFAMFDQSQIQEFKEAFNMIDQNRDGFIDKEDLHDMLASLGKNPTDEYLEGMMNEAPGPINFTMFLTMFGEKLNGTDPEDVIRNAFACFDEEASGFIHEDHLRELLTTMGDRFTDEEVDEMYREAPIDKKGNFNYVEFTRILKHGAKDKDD
Experimental: (§1) Then, whether the binding of Myl9, Myl12a, and Myl12b with CD69 actually occurred was investigated. Firstly, mCD69EC sequence was inserted to p3xFLAG CMV-9 (Sigma-Aldrich Co. LLC.) having Flag tag incorporated at the N-terminal to produce an expression vector of mCD69EC sequence having Flag-Tag added at the N-terminal. The expression vector was transformed to 293 T cells to overexpress 3xFlag mCD69EC, and then a cell extract was prepared. As a control, a cell extract was prepared from 293 T cells overexpressing 3xFlag peptide. 3xFlag mCD69EC protein or 3xFlag peptide was purified from the cell extract using anti-[…] (SEQ ID NO: 21) tag antibody beads (Wako Pure Chemical Industries, Ltd.). In this case, […] is a peptide represented by a single letter code for an amino acid. Those purified proteins were each subjected to a reaction with a bone marrow extract (BM lysate) in the same manner as described above and the resultant products were subjected to immunoprecipitation using anti-Flag M2 antibody (Sigma-Aldrich Co. LLC.) and protein-G (GE Healthcare). After the immunoprecipitation was performed, the precipitates were separated by SDS-PAGE and transferred to a polyvinylidene difluoride (PVDF) membrane (Bio-Rad Laboratories, Inc.). Subsequently, immunoblotting was performed using an antibody which recognized Myl9, Myl12a, and Myl12b (hereinafter referred to as anti-Myl9/12 antibody). That is, each protein was detected by ChemiDocXRS+ (Bio-Rad Laboratories, Inc.) with ECL detection reagents (GE Healthcare) using rabbit anti-Myl9 antibody (Abcam plc.) as a primary antibody and horseradish peroxidase (HRP)-labeled anti-rabbit IgG antibody (Cell Signaling Technology, Inc.) as a secondary antibody. Deglycosylation treatment of the mCD69EC protein was performed by adding 500 U of N-glycosidase PNGase F (New England Biolabs Ltd.) to 1 μg of 3xFLAG mCD69EC.

[2] = target: T2, mouse Myl12b (myosin regulatory light chain polypeptide 12b) (mouse, UniProt Q3THE2 1-172, limits assumed)
T2 construct: Native protein in mouse bone marrow extract (BM lysate) or mouse tissues; also called Myl9/12
T2 sequence: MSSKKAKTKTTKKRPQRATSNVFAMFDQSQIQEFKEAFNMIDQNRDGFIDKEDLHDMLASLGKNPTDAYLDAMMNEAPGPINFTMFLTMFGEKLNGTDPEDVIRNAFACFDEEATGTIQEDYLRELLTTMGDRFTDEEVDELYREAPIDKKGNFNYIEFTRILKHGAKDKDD
Experimental: as §1

[3] = target: B2
Experimental: as §1

[4] = target: B1
Experimental: as §1

B1
binding result [1]: binds | binding result [2]: binds

B2
binding result [1]: binds | binding result [2]: binds

B3: mouse Myl12a (myosin regulatory light chain polypeptide 12a) (ligand)
chain: MSSKRAKTKTTKKRPQRATSNVFAMFDQSQIQEFKEAFNMIDQNRDGFIDKEDLHDMLASMGKNPTDEYLDAMMNEAPGPINFTMFLTMFGEKLNGTDPEDVIRNAFACFDEEAIGTIQEDYLRELLTTMGDRFTDEEVDELYREAPIDKKGNFNYIEFTRILKHGAKDKDD
notes: Native protein in mouse bone marrow extract (BM lysate) or mouse tissues; also called Myl9/12
binding result [3]: binds | binding result [4]: binds
